According to PMC5059453, “Structure of ubiquitylated-Rpn10 provides insight into its autoregulation mechanism” (Nature Communications, 2016):

T1: GST-Rpn10 vWA domain (residues 1-189) (S. cerevisiae, UniProt P38886 1-189)
T1 construct: Rpn10, S. cerevisiae, N-terminal vWA (Von Willebrand factor type A) domain, residues 1-189 (made from pGST-Rpn10 by deleting residues 190-268); also called wild-type vWA; source: expressed and purified as GST-fusion protein, size exclusion chromatography before each experiment
T1 sequence (looked up): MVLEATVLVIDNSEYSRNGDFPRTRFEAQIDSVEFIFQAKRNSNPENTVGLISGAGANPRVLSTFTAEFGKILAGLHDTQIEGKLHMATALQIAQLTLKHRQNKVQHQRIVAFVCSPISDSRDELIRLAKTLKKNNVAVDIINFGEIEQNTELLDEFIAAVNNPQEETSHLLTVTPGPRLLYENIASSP

T2: GST-Rpn10 (full-length Rpn10) (S. cerevisiae, UniProt P38886 1-268)
T2 construct: Rpn10, proteasomal ubiquitin receptor, S. cerevisiae; open reading frame encodes residues 1-268; Plasmid pGST-Rpn10; also called Rpn10 wt; wild-type full-length Rpn10; source: expressed and purified as GST-fusion protein, size exclusion chromatography before each experiment
T2 sequence (looked up): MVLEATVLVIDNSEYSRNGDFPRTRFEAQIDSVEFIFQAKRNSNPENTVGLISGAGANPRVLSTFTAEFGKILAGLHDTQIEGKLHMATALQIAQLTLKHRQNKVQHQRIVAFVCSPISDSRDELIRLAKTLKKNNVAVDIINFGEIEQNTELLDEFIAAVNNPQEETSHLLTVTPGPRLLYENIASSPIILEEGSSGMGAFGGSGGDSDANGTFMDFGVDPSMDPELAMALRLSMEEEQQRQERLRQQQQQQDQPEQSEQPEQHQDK

B1: free mono-ubiquitin (wild type) (natural protein)
chain: not shown
notes: ubiquitin (Ub), the mature 76-residue protein; also called Ub wt; source: purified, size exclusion chromatography before each experiment

Key:
Test in all cases: SPR; α-GST antibody immobilized on a CM5 chip captures GST-Rpn10 derivatives (ligands); free mono-Ub variants as analytes; 10 mM HEPES pH 7.0, 150 mM NaCl, 0.005% polysorbate-20, 25 °C; triplicate; single-site-binding model
Details in all cases: both partners purified
[1] = molecular target: T1, GST-Rpn10 vWA domain (residues 1-189)
[2] = molecular target: T2, GST-Rpn10 (full-length Rpn10)
[3] = molecular target: B1

Row | Kd [1] | Kd [2] | Kd [3] | Binder
1 | ~330 µM | ~270 µM | – | B1
2 | – | – | ~180 µM | SMDPELAMALRLSMEEEQQR (domain or fragment, S. cerevisiae, UniProt P38886 223-242, looked up, also called its UIM alone; source: expressed and purified as GST-fusion protein, size exclusion chromatography before each experiment) [GST-Rpn10 UIM]
